According to US5876949, “Antibodies specific for fragile X related proteins and method of using the same” (The Trustees of the University of Pennsylvania, dated 1999):

Biological target: GAL4(1-147)-FMR1, FMR1 fused to the DNA binding domain of the yeast transcription factor GAL4 (plasmid … (yeast; human, UniProt P04386)
Experiment: yeast two-hybrid, HIS3 and LacZ reporters in HF7C

B1: GAL4 activation domain alone (empty vector pGAD424) (other)
chain: ANFNQSGNIADSSLSFTFTNSSNGPNLITTQTNSQALSQPIASSNVHDNFMNNEITASKIDDGNNSKPLSPGWTDQTAYNAFGITTGMFNTTTMDDVYNYLFDDEDTPPNPKKE
  binding result: no binding
